Test results published in the supplement of paper PMC10126150.
± gives the standard deviation of the averaged measurements.

Tested on: ATP
Experiment: switch fluorescence ratio, 500 uM ATP over buffer (Cy3 cluster intensity, sum of 5 cycles each) (fold (ratio)); higher = stronger signal-on switching upon ATP binding; sequences stand for … in TCGTCGGCAGCGTCAGATGTGTATAAGAGACAGTTTTTTTTTTTTTTTTTTTTTTTTT…TC
Settings: aptamer strand: ATP DNA aptamer (quencher-CACCTGGGGGAGTATTGCGGAGGAAGG + anchor), 100 nM annealed; ATP concentration: 500 uM
How it was run: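 The fluorescence ratio divides summed target-cycle Cy3 intensity by summed buffer-cycle Cy3 intensity for each cluster and is averaged per switch-domain sequence. Cy3-labelled switching-strand clusters on a modified Illumina MiSeq flow-cell were annealed to 100 nM quencher-labelled ATP aptamer, then imaged in selection buffer and again after 15 min with 500 uM ATP at 22 °C. Five such cycles were run, with NaOH stripping and re-annealing between them, and clusters outside 100-1000 RFU were excluded.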
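Note: ATP exposure 15 min at 22 °C before imaging.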

Sequence | switch fluorescence ratio
GGACAAAAGA | 0.984 ± 0.011
TTTGCTGAAC | 1.065 ± 0.0086
TTCTCGTCAA | 5.06 ± 0.96
TATTGGTATG | 1 ± 0.017
ATTCTGTGGT | 0.97 ± 0.019
CAGTGTGTAT | 0.989 ± 0.013
ACACAAGGCT | 1.03 ± 0.037
TTTCGGAAAT | 1.01 ± 0.016
CGAATAGCTT | 1.01 ± 0.062
AGTAATGGGA | 1.06 ± 0.064
AGTTATAGCT | 0.985 ± 0.014
TGTGGTCCAA | 0.9855 ± 0.0036
CTTTTAATTG | 0.977 ± 0.037
ATGCCGGGAT | 1.02 ± 0.02
CGGGCTGGTG | 1.0093 ± 0.0005
AATTGGTAGC | 0.966 ± 0.015
GAGTTTAAGG | 0.9978 ± 0.009
TTGTGGTGTG | 0.984 ± 0.049
GGTGGGGCGT | 1 ± 0.017
ATGGCGAATT | 0.995 ± 0.073
GGGCCCTGTT | 1.03 ± 0.021
CTATTAATGA | 1.03 ± 0.057
TTAAATCCGT | 0.989 ± 0.021

Sequence | switch fluorescence ratio
TTTAAGATGG | 1.02 ± 0.02
TAATGTTATG | 1.03 ± 0.017
TAAGGAGGTC | 0.99 ± 0.031
CGGTCGTAAC | 1.04 ± 0.018
GGGGGTCGTT | 1.02 ± 0.051
TTGATGCAAA | 1.01 ± 0.05
CGGATCGTGG | 0.987 ± 0.021
GAGTTTGGGC | 1.01 ± 0.039
AGAGATATGA | 1.0142 ± 0.00072
ACATGAGTGT | 1.02 ± 0.024
ATGGCGGGGA | 0.984 ± 0.052
AACTAGACCT | 1.42 ± 0.019
TGGGACGGTA | 1 ± 0.022
CTTTGGGGGC | 0.9593 ± 0.0087
TTTCGCAGGT | 1.24 ± 0.15
GCTTCGAAGG | 0.993 ± 0.031
TTGGAGTTG | 1.02 ± 0.048
AGGAAGGGGC | 0.96 ± 0.018
CCAGTGTCGG | 0.969 ± 0.04
GAAGATTGAT | 0.96 ± 0.022
TTAAGTGCGG | 1 ± 0.02
GAATTTGATG | 1 ± 0.042
AGAATGGTCG | 1.03 ± 0.03

Sequence | switch fluorescence ratio
TCTTAGTTCG | 1.008 ± 0.01
GGGAGTAAAT | 1.01 ± 0.037
GGTGGAGTTT | 0.987 ± 0.015
CAGCGGGGCA | 1.017 ± 0.0072
AGTTGTATGG | 0.9738 ± 0.0049
TTAAAACGGA | 1.02 ± 0.036
AAAGGATGGT | 0.953 ± 0.022
CAGGGTCGGC | 0.993 ± 0.035
AGTCTGACCA | 1.018 ± 0.005
GTCGCGGCGA | 0.9664 ± 0.006
AGGATACTGG | 0.975 ± 0.031
GGCGCGGGGG | 1.03 ± 0.023
AAACTGGGCG | 1.04 ± 0.062
CAGGGAAAAG | 0.991 ± 0.032
ACGATAATTT | 1.18 ± 0.035
TGATTGGGAC | 0.9673 ± 0.0074
GAGTGGTTTT | 0.991 ± 0.063
GGAGACTTGA | 0.986 ± 0.024
TCTGGTGTTC | 1.045 ± 0.005
GTTGTCAATG | 0.974 ± 0.021
CATTAGTTGG | 1.006 ± 0.0052
TAGGTGACGG | 0.991 ± 0.021
GATTCCGTCC | 1.177 ± 0.0046

Sequence | switch fluorescence ratio
TTAGTTTTTA | 0.991 ± 0.022
CTAAATAGCA | 1.01 ± 0.016
ATTGTTTTTT | 0.995 ± 0.01
GATATTTGAT | 0.995 ± 0.042
CGGTGACGGG | 0.959 ± 0.014
AACTCGGTCC | 1 ± 0.061
GGGGGCATTA | 0.999 ± 0.016
TTTCCAAGAA | 1.03 ± 0.025
TTAAAACCCC | 1.04 ± 0.054
CGTTTGTGAT | 0.9993 ± 0.0076
TTCATGTTGT | 0.984 ± 0.027
TTTTGGGAAA | 0.989 ± 0.044
AATGGCGGGT | 0.996 ± 0.034
AAACTTTTAA | 1.01 ± 0.019
TGGGAAGGTA | 0.999 ± 0.029
TTCGCTTAGG | 0.993 ± 0.026
CAGGGGATAT | 0.993 ± 0.046
ACCTGCAATT | 2.96 ± 0.044
TTTTTTAGTG | 0.981 ± 0.026
GTGAGGATGG | 0.978 ± 0.012
TTCCCGTGCT | 1.022 ± 0.0076
TAGTGCCAGA | 1.01 ± 0.012
TGGTTTGTTA | 1.02 ± 0.022

Sequence | switch fluorescence ratio
ACGGTGAGGT | 1.02 ± 0.016
GACTGGGGGA | 1.01 ± 0.025
GGGTCAAGGG | 0.979 ± 0.019
GGGAAGACGC | 0.978 ± 0.025
GGTTTCTCGG | 1.019 ± 0.0092
TGCATTGCTG | 1.01 ± 0.038
ACATTTTTGC | 0.9897 ± 0.0011
TCGGGGCAGC | 0.998 ± 0.042
GGATGGATGA | 1.07 ± 0.073
TACGTTAGCT | 1.119 ± 0.0018
AAGGCGTAG | 0.984 ± 0.1
GTTATTTGCT | 0.988 ± 0.02
AAGCTATCGG | 0.994 ± 0.016
ATATAGGGAT | 1.021 ± 0.007
AGACAATATT | 0.979 ± 0.032
GTGGTTCTGG | 1.01 ± 0.018
GGGTATAGCC | 0.9807 ± 0.0066
GGTTGGTACG | 1.01 ± 0.019
TCCATGTTCT | 0.992 ± 0.034
CAAATGTAGC | 1.017 ± 0.0081
AACGGCTTCA | 1.057 ± 0.0029
CGCCATTGTT | 1.01 ± 0.011
TCCGCGTACG | 2.75 ± 0.056

Sequence | switch fluorescence ratio
GTGGGGTTGC | 0.984 ± 0.021
AGGGAGCCGG | 0.965 ± 0.03
GCTTACTGTA | 1.15 ± 0.024
TAGGGAGGCA | 1.01 ± 0.028
AACGAAAGGG | 1.03 ± 0.074
GGAGGGGGTA | 1.01 ± 0.016
AATTTGTGTG | 0.99 ± 0.034
GGCTCAGCGG | 1.03 ± 0.07
ATCCTGGGGG | 1.4 ± 0.7
TCTCACGATT | 1.022 ± 0.0061
AGGGTTCCTG | 0.954 ± 0.036
AAGAGGTTAC | 0.973 ± 0.049
TAAGAGTTGG | 0.999 ± 0.018
TTGATGGGAG | 1.07 ± 0.12
AATACGAATA | 1.92 ± 1.2
AGGTATCCCT | 1.01 ± 0.022
GATGGGCAGG | 1 ± 0.024
CCTGCTAAGT | 1 ± 0.058
GGGATAGACT | 0.995 ± 0.035
TTCGCTAGTG | 0.98 ± 0.033
AGGGGTAGTA | 1.03 ± 0.04
GCTTGATGTG | 0.986 ± 0.015
GCATTTCCCG | 1.06 ± 0.091

Sequence | switch fluorescence ratio
GAGCCTGGGT | 1.01 ± 0.017
CGAATTTAAG | 1.009 ± 0.0062
CGTGGGATAG | 1.04 ± 0.036
GGAATCTGCC | 1.14 ± 0.024
TAATTTTTGT | 0.993 ± 0.026
ATGGGAGGTC | 0.97 ± 0.0071
AGATCATGCG | 1.02 ± 0.045
GAGTCTGCGT | 1.08 ± 0.026
GGCATCGCGA | 1.1 ± 0.064
AATAGCTATT | 0.986 ± 0.023
ACTCGGCCC | 1.23 ± 0.015
TCCTTGCTTT | 1.1 ± 0.025
GCTATCTTTT | 1.02 ± 0.04
CCCTTTTTAT | 0.986 ± 0.014
TGGGGAGTGG | 1.02 ± 0.065
GAATGGGGTG | 1.02 ± 0.041
TATATGTGTG | 0.9661 ± 0.0073
TTTCCATTGG | 1.03 ± 0.015
TTGGCTAGTT | 1 ± 0.029
